Source: patent US20180265552A1 (INSTITUT NATIONAL DE LA RECHERCHE AGRONOMIQUE, published 2018)

Biological target: TRCP VLP
Assay: titration, native agarose gel mobility shift

B1: Nb23 fused to EGFP (VHH)
VHH: QVQLQESGGGSVQVGGSLRVACAASGDTFSGYLAAWFRQAPGKGREGVAAINSKRHTTSYADSVKGRFTISKDNADNIMYLEMNSLKPEDTAIYYCAAADAIGLAEYWSTPTLSAARYKYWGQGTQVTVSS
molecular ratio between GFLV CP and Nb23:GFP at maximum mobility shift: ~1 Nb23:GFP per CP
